This data set concerns the target T1, FLAG-TCF4, full length human TCF4 expressed from pFLAG-CMV-4, Q9NQB0.
T1 chain: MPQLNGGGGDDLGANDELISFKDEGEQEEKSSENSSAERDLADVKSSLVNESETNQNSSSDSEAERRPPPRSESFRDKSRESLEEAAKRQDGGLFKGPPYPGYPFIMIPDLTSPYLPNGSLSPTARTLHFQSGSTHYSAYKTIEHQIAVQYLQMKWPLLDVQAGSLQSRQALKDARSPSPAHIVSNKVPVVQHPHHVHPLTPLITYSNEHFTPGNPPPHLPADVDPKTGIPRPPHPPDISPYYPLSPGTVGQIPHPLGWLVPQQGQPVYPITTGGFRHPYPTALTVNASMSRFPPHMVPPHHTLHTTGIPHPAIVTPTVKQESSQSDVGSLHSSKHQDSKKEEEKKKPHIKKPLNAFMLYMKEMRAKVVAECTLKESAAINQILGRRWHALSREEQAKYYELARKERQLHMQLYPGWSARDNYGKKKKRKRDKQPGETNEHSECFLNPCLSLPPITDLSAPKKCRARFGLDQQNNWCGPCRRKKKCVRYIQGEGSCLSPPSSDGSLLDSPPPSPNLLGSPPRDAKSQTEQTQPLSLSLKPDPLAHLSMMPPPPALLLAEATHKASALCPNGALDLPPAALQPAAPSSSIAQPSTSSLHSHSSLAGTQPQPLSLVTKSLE

B1: HA-TNIK K54R, ATP binding site mutant of human TNIK expressed from pCIneo-HA-TNIK K54R (protein)
chain: MASDSPARSLDEIDLSALRDPAGIFELVELVGNGTYGQVYKGRHVKTGQLAAIRVMDVTGDEEEEIKQEINMLKKYSHHRNIATYYGAFIKKNPPGMDDQLWLVMEFCGAGSVTDLIKNTKGNTLKEEWIAYICREILRGLSHLHQHKVIHRDIKGQNVLLTENAEVKLVDFGVSAQLDRTVGRRNTFIGTPYWMAPEVIACDENPDATYDFKSDLWSLGITAIEMAEGAPPLCDMHPMRALFLIPRNPAPRLKSKKWSKKFQSFIESCLVKNHSQRPATEQLMKHPFIRDQPNERQVRIQLKDHIDRTKKKRGEKDETEYEYSGSEEEEEENDSGEPSSILNLPGESTLRRDFLRLQLANKERSEALRRQQLEQQQRENEEHKRQLLAERQKRIEEQKEQRRRLEEQQRREKELRKQQEREQRRHYEEQMRREEERRRAEHEQEYIRRQLEEEQRQLEILQQQLLHEQALLLEYKRKQLEEQRQAERLQRQLKQERDYLVSLQHQRQEQRPVEKKPLYHYKEGMSPSEKPAWAKEVEERSRLNRQSSPAMPHKVANRISDPNLPPRSESFSISGVQPARTPPMLRPVDPQIPHLVAVKSQGPALTASQSVHEQPTKGLSGFQEALNVTSHRVEMPRQNSDPTSENPPLPTRIEKFDRSSWLRQEEDIPPKVPQRTTSISPALARKNSPGNGSALGPRLGSQPIRASNPDLRRTEPILESPLQRTSSGSSSSSSTPSSQPSSQGGSQPGSQAGSSERTRVRANSKSEGSPVLPHEPAKVKPEESRDITRPSRPASYKKAIDEDLTALAKELRELRIEETNRPMKKVTDYSSSSEESESSEEEEEDGESETHDGTVAVSDIPRLIPTGAPGSNEQYNVGMVGTHGLETSHADSFSGSISREGTLMIRETSGEKKRSGHSDSNGFAGHINLPDLVQQSHSPAGTPTEGLGRVSTHSQEMDSGTEYGMGSSTKASFTPFVDPRVYQTSPTDEDEEDEESSAAALFTSELLRQEQAKLNEARKISVVNVNPTNIRPHSDTPEIRKYKKRFNSEILCAALWGVNLLVGTENGLMLLDRSGQGKVYNLINRRRFQQMDVLEGLNVLVTISGKKNKLRVYYLSWLRNRILHNDPEVEKKQGWITVGDLEGCIHYKVVKYERIKFLVIALKNAVEIYAWAPKPYHKFMAFKSFADLQHKPLLVDLTVEEGQRLKVIFGSHTGFHVIDVDSGNSYDIYIPSHIQGNITPHAIVILPKTDGMEMLVCYEDEGVYVNTYGRITKDVVLQWGEMPTSVAYIHSNQIMGWGEKAIEIRSVETGHLDGVFMHKRAQRLKFLCERNDKVFFASVRSGGSSQVFFMTLNRNSMMNW
With B1, the “serine phosphorylation of TCF4 (immunoprecipitation with anti-TCF4, immunoblot with anti-phospho-serine antibody)” value was “significant serine phosphorylation was not observed compared with control”.
